# Reference: paper PMC2290880 (The Journal of Cell Biology, 1993)
# T1: Sec63p (Saccharomyces cerevisiae (endogenous in …, UniProt P14906 1-663))
# T1 sequence (looked up): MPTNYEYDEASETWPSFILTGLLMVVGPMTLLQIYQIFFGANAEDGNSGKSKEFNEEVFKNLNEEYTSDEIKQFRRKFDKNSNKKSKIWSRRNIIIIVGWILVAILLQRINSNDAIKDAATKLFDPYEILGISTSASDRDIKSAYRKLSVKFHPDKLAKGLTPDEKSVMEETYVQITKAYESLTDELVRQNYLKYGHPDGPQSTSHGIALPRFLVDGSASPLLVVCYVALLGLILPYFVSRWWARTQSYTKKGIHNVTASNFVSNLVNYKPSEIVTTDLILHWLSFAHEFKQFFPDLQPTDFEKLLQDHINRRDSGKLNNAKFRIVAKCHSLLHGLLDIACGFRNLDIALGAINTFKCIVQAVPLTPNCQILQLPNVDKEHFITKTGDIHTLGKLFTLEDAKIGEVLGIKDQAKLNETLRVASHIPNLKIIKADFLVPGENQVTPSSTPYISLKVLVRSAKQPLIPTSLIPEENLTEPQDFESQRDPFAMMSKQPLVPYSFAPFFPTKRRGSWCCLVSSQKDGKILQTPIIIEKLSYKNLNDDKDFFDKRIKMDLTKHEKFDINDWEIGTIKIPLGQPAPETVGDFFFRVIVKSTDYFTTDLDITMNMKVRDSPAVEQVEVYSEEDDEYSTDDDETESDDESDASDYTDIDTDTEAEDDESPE
# B1: BiP/Kar2p (natural protein)
# chain: not shown
# Target: T1, Sec63p
# Test: co-elution on hydroxylapatite chromatography
binder,measurement,value
B1,stoichiometry N,1.4 Sec63p per BiP
